B1: BaeS sensory kinase tagged with monomeric yellow fluorescent protein (BaeS-mYFP) [E. coli] / itself (parent)
chain: MKFWRPGITGKLFLAIFATCIVLLISMHWAVRISFERGFIDYIKHGNEQRLQLLSDALGEQYAQHGNWRFLRNNDRFVFQILRSFEHDNSEDKPGPGMPPHGWRTQFWVVDQNNKVLVGPRAPIPPDGTRRPILVNGAEVGAVIASPVERLTRNTDINFDKQQRQTSWLIVALATLLAALATFLLARGLLAPVKRLVDGTHKLAAGDFTTRVTPTSEDELGKLAQDFNQLASTLEKNQQMRRDFMADISHELRTPLAVLRGELEAIQDGVRKFTPETVASLQAEVGTLTKLVDDLHQLSMSDEGALAYQKAPVDLIPLLEVAGGAFRERFASRGLKLQFSLPDSITVFGDRDRLMQLFNNLLENSLRYTDSGGSLQISAGQRDKTVRLTFADSAPGVSDDQLQKLFERFYRTEGSRNRASGGSGLGLAICLNIVEAHNGRIIAAHSPFGGVSITVELPLERDLQREV

Variants of: B1
Assay: fluorescence anisotropy (homo-FRET) on cells
Conditions: with itself; ΔbaeS cells; Copper (10 μM) added at about 45 sec; plateau read at about 200-300 sec, before EDTA (100 μM); parent: 0.79; read off a plot

**Q.** For chain 1 H45A H65A H87A H101A, which response is on record?
**A.** The response was 0.95 r/r0.
